Assay results: PMC5001605

Target: archaeal KEOPS complex (pfuPcc1, mjKae1, mjBud32, mjCgi121) (Pyrococcus furiosus | Methanococcus jannaschii) (UniProt Q8TZI1)
Assay: SEC-MALS

“archaeal KEOPS complex (pfuPcc1, mjKae1, mjBud32, mjCgi121) (from UniProt Q8TZI1 1-82; Q58530 1-328; Q58530 1-535; Q57646 1-145)” was tested, and the stoichiometry N was 2.
